According to patent publication US20250059278A1 (SICHUAN HUIYU PHARMACEUTICAL, published 2025):

What was measured:
[1] = target: T1, Monkey CD3 on cynomolgus HSC-F cells (cynomolgus monkey, UniProt Q95LI5 22-198; Q95LI7 23-181; Q95LI8 22-171); assay: flow cytometry on HSC-F cells
T1 construct: whole, on cells; also called Monkey CD3-expressing cynomolgus HSC-F cells; cynomolgus monkey CD3-expressing HSC-F cells

[2] = target: T2, Human CD3 on Jurkat cells (human, UniProt P07766 23-207; P09693 23-182; P04234 22-171); assay: flow cytometry on Jurkat cells
T2 construct: whole, on cells; also called Human CD3-expressing Jurkat cells; Jurkat (naturally expressing human CD3)

[3] = target: T3, Human CD3εγ recombinant antigen (acrobiosystems, Cat. No. CDG-H52W5) (human, UniProt P07766 23-126; P09693 23-116); assay: SPR chip (Carterra), antibody captured, antigen in flow;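 note: antibodies captured through anti-human IgG Fc at roughly 1000 RU, kinetic constants fitted with a 1:1 binding model in Carterra analysis software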
T3 construct: Bought recombinant protein
Experimental: Antibodies at three concentrations of 4, 2, and 1 μg/mL were immobilized on the HC200M chip containing anti-human IgG Fc secondary antibody (Xantec, Cat. No.: HC200M), and the antibody binding amount was controlled to approximately 1000RU. […] The kinetic constants were obtained by fitting using the 1:1 binding model of Kinetics software from Carterra.

| EC50 [1] | EC50 [2] | Kd [3] | koff [3] | kon [3] | Binder |
| --- | --- | --- | --- | --- | --- |
| 2.31 nM | 2.55 nM | 3.33 nM | 0.00222 s⁻¹ | 666000 M⁻¹ s⁻¹ | CD3 monoclonal antibody M22 (antibody, human IgG1, lambda, V domains shown, IgG: VH22 + IgG1 mutant CH, VL-1 + CL) VH: EVQLVESGGGLVQPGGSLRLSCAASGFTFNTYAMNWVRQAPGKGLEWVARIRSKYNNYATYYADSVKGRFTISRDDSKSILYLQMNSLKTEDTAMYYCVRHERFGNSYVSWFAYWGQGTLVTVSS VL: not shown |
| 0.12 nM | 1.32 nM | 1.06 nM | 0.00358 s⁻¹ | 3.38e+06 M⁻¹ s⁻¹ | CD3 monoclonal antibody M24 (antibody, human IgG1, lambda, V domains shown, IgG: VH24 + IgG1 mutant CH, VL-1 + CL) VH: EVQLVESGGGLVQPGGSLRLSCAASGFTFNTYAMNWVRQAPGKGLEWVARIRSKYNNYATYYADSVKGRFTISRDDSKSILYLQMNSLKTEDTAVYYCVRHSNFGRSYVSWFAYWGQGTLVTVSS VL: not shown |
| 1.23 nM | 41.6 nM | 3.71 nM | 0.00649 s⁻¹ | 1.75e+06 M⁻¹ s⁻¹ | CD3 monoclonal antibody M21 (antibody, human IgG1, lambda, V domains shown, IgG: VH21 + IgG1 mutant CH, VL-1 + CL) VH: EVQLVESGGGLVQPGGSLRLSCAASGFTFNTYAMNWVRQAPGKGLEWVARIRSKYNNYATYYADSVKGRFTISRDDSKSSLYLQMNSLKTEDTAMYYCVRHSNFGNTYVSWFAYWGQGTLVTVSS VL: not shown |
| 0.111 nM | 0.0954 nM | 5.27 nM | 0.0048 s⁻¹ | 910000 M⁻¹ s⁻¹ | CD3 monoclonal antibody M25 (antibody, human IgG1, lambda, V domains shown, IgG: VH25 + IgG1 mutant CH, VL-1 + CL) VH: EVQLVESGGGLVQPGGSLRLSCAASGFTFNTYAMNWVRQAPGKGLEWVARIRSKYNNYATYYADSVKDRFTISRDDSKSILYLQMNSLKTEDTAMYYCVRHGNFGNSRVSWFAYWGQGTLVTVSS VL: not shown |
| 6.58 nM | 61.7 nM | 2.56 nM | 0.00232 s⁻¹ | 908000 M⁻¹ s⁻¹ | CD3 monoclonal antibody M20 (antibody, human IgG1, lambda, V domains shown, IgG: VH20 + IgG1 mutant CH, VL-1 + CL) VH: EVQLVESGGGLVQPGGSLRLSCAASGFTFNTYAMNWVRQAPGKGLEWVARIRSKYNNYATYYADSVKDRFTISRDDSKSSLYLQMNSLKTEDTAVYYCVRHGNFGNSYVSWFQYWGQGTLVTVSS VL: not shown |
| 0.164 nM | 0.186 nM | 1.57 nM | 0.00549 s⁻¹ | 3.5e+06 M⁻¹ s⁻¹ | CD3 monoclonal antibody M23 (antibody, human IgG1, lambda, V domains shown, IgG: VH23 + IgG1 mutant CH, VL-1 + CL) VH: EVQLVESGGGLVQPGGSLRLSCAASGFTFNTYAMNWVRQAPGKGLEWVARIRSKYNNYATYYADSVKGRFTISRDDSKSILYLQMNSLKTEDTAMYYCVRHSNFLNSYVSWFAYWGQGTLVTVSS VL: not shown |

The remaining lines, values behind:

| Binder | EC50 [1] | EC50 [2] | Kd [3] | koff [3] | kon [3] |
| --- | --- | --- | --- | --- | --- |
| CD3 monoclonal antibody M16 (antibody, human IgG1, lambda, V domains shown, IgG: VH16 + IgG1 mutant CH, VL-1 + CL) VH: EVQLVESGGGLVQPGGSLRLSCAASGFTFNTYAMNWVRQAPGKGLEWVARIRSKYNNYATYYADSVKGRFTISRDDSKSILYLQMNSLKTEDTAVYYCVRHGNFGNSYVSWFQYWGQGTLVTVSS VL: not shown | 0.162 nM | 0.477 nM | 2.02 nM | 0.00188 s⁻¹ | 929000 M⁻¹ s⁻¹ |
| CD3 monoclonal antibody M17 (antibody, human IgG1, lambda, V domains shown, IgG: VH17 + IgG1 mutant CH, VL-1 + CL) VH: EVQLVESGGGLVQPGGSLRLSCAASGFTFNTYAMNWVRQAPGKGLEWVARIRSKYNNYATYYADSVKDRFTISRDDSKSILYLQMNSLKTEDTAMYYCVRHGNFWNSYVSWFASWGQGTLVTVSS VL: not shown | 0.21 nM | 0.181 nM | 2.52 nM | 0.00108 s⁻¹ | 429000 M⁻¹ s⁻¹ |
| CD3 monoclonal antibody M19 (antibody, human IgG1, lambda, V domains shown, IgG: VH19 + IgG1 mutant CH, VL-1 + CL) VH: EVQLVESGGGLVQPGGSLRLSCAASGFTFNTYAMNWVRQAPGKGLEWVARIRSKYNNYATYYADSVKDRFTISRDDSKSILYLQMNSLKTEDTAVYYCVRHGNFGNSAVSWFQYWGQGTLVTVSS VL: not shown | 0.238 nM | 0.19 nM | 1.57 nM | 0.00256 s⁻¹ | 1.63e+06 M⁻¹ s⁻¹ |
| CD3 monoclonal antibody M18 (antibody, human IgG1, lambda, V domains shown, IgG: VH18 + IgG1 mutant CH, VL-1 + CL) VH: EVQLVESGGGLVQPGGSLRLSCAASGFTFNTYAMNWVRQAPGKGLEWVARIRSKYNNYATYYADSVKDRFTISRDDSKSSLYLQMNSLKTEDTAMYYCVRAGNFGNSYVNWFAYWGQGTLVTVSS VL: not shown | 0.841 nM | 0.515 nM | 179 nM | – | – |
